In patent US20260243776A1 (LEIBNIZ INSTITUT F R ALTERNSFORSCHUNG FRITZ LIPMANN …, published 2026):

Key:
BRD2 = BRD2 (human, UniProt P25440 1-801, limits assumed); test: proximity biotinylation in HEK293T cells treated with the PROTAC KB02-JQ1 (10 uM), with or without MG132; recruitment induced by the small molecule
Description: (§1) The expression of BirA* or miniTurbo fusion proteins were induced by a single addition of tetracycline stock (solved in ethanol) exposing the cells to its final concentration of 1 μg/μl in total for 4 days. 2 hours (miniTurbo lines) or 24 hours (BirA* lines) prior to cell harvesting, 50 μM biotin was added to the culture media. […] Upon treatment, cells were washed 3×times with PBS and harvested by trypsinization. For each sample, a pellet corresponding to 20 million cells was collected and snap-frozen in liquid nitrogen.

BRD3 = BRD3 (human, UniProt Q15059 2-726, limits assumed); test: as above
BRD3, sequence (Q15059 2-726 limits assumed): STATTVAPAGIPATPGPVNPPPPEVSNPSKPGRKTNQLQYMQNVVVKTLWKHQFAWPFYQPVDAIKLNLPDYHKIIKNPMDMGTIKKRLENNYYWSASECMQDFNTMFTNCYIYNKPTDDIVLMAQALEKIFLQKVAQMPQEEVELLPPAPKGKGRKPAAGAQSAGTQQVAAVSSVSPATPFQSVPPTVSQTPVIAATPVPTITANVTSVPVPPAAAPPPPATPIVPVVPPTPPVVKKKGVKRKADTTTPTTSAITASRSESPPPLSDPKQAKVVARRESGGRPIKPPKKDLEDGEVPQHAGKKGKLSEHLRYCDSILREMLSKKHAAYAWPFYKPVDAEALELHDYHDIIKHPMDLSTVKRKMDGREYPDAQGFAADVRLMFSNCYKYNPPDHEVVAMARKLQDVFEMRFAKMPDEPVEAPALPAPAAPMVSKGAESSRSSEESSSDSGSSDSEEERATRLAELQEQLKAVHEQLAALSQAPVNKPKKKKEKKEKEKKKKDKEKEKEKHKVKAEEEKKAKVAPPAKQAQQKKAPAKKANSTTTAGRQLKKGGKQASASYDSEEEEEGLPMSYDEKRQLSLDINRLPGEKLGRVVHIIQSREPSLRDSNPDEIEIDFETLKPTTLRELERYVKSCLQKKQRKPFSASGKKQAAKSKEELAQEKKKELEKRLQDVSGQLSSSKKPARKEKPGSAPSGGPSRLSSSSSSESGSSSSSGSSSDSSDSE
Description: as §1

BRD2, sequence (P25440 whole entry): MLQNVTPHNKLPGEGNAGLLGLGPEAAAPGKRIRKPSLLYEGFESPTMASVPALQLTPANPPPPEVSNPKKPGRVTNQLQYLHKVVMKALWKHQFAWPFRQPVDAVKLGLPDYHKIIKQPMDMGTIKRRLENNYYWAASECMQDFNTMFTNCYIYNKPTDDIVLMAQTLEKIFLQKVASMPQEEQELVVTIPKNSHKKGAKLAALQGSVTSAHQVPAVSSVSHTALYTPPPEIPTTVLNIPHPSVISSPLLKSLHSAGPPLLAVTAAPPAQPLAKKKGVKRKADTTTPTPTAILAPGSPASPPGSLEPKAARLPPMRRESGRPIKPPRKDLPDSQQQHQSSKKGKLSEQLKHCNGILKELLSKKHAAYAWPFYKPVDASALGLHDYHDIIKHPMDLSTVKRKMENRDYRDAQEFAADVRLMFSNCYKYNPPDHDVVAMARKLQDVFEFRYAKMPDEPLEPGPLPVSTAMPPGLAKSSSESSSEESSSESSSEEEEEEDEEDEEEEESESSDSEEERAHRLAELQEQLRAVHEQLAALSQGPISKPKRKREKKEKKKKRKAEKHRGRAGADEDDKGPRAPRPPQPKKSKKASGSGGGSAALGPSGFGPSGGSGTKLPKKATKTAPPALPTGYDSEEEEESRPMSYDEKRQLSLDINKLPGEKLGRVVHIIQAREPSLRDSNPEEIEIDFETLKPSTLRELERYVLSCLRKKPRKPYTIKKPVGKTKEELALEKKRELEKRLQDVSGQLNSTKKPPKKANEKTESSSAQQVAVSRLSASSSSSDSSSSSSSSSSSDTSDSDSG

binding result (BRD2): binds
binding result (BRD3): binds
B1: PSMA4-miniTurbo-FLAG (other)
chain: MSRRYDSRTTIFSPEGRLYQVEYAMEAIGHAGTCLGILANDGVLLAAERRNIHKLLDEVFFSEKIYKLNEDMACSVAGITSDANVLTNELRLIAQRYLLQYQEPIPCEQLVTALCDIKQAYTQFGGKRPFGVSLLYIGWDKHYGFQLYQSDPSGNYGGWKATCIGNNSAAAVSMLKQDYKEGEMTLKSALALAIKVLNKTMDVSKLSAEKVEIATLTRENGKTVIRVLKQKEVEQLIKKHEEEEAKAEREKKEKEQKEKDKYPTFLYKVVDSRMASIPLLNAKQILGQLDGGSVAVLPVVDSTNQYLLDRIGELKSGDACIAEYQQAGRGSRGRKWFSPFGANLYLSMFWRLKRGPAAIGLGPVIGIVMAEALRKLGADKVRVKWPNDLYLQDRKLAGILVELAGITGDAAQIVIGAGINVAMRRVEESVVNQGWITLQEAGINLDRNTLAAMLIRELRAALELFEQEGLAPYLSRWEKLDNFINRPVKLIIGDKEIFGISRGIDKQGALLLEQDGVIKPWMGGEISLRSAEKLQDDYKDDDDK
notes: also called A4-mT; PSMA4_miniTurboID
